According to the domain aggregation screens of Martell et al. (2025):

Test: soluble fraction after stress (log2 fold change); higher = more stays soluble; pooled small domains, quantitative proteomics
Conditions: stress: 75 degC
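Further: 20 min heating vs room temperature control held 20 min.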

| Sequence | soluble fraction (log2) |
| --- | --- |
| HMSTTHLTASVIKDKVNVRSEADSQNGAIIDKARTGERLLVTDYGNKWTGIVLPDGKRGYIMTEYLQF | -0.114 |
| HMSTTSYTQFMEDAKAGKIARVDIKGREITVTPTEGSRYVITSPGDLWMVDDLRKDGVQVYGPP | 0.0558 |
| HMSTTYLNEGDRITLTDSVNIRTSMSETADRVGLAYQGDVVTVIMSYAEGWTKVSWNGQTGYAKTEYL | -1.52 |
| HMSTVIENVFKNFEVYEIKKGDTFYNIEKRFGVNRQELLVLNPELKEGLKLGMVLKIKEIIP | -3.02 |
| HMSTYTETETAYLKAYSAAGVDGKISDSERGILNMTAEALGITVERTTELEAMFNLTVEEEA | -0.0838 |
| HMSVDIWTGAQTGNIEAVKQHLADGVDVNSKSDIGRTALDVAIAFKQPLITDLLRKHGGKTRDELKAAE | ≥ 1.04 |
| HMSVEVADITRAYYEGVGFEWWIRSVRLDPNELIVDNDDEGKLYRVPFEINGEEVTFGDPVEVKIRYE | -0.995 |
| HMSVFGDNVARLRAEHGMSQRALAERLEITNGTVAAWESRDTLPDYDRIRQIAEIFDVPIPQLFAKYIP | -1.54 |
| HMSVISVETAKSKALAHAGLTASKVTFIENKLEWDDGRQVYDIEFYTSDYKEYDYTIDAVSGQVLEFDY | -1.67 |
| HMSVKLMEVKGASTVVSRQVREAVSIVFPTSSMRLDLVALKARIEGVDAVKRADVYLRNGILEIQIDER | -2.11 |
| HMSVKLYPNPTRSVTTFATDVDKWYLYDNQGKLVSEGNTKTIDVTAFPVGIYFVKTIKGNNSTFVKLIV | -2.14 |
| HMSVLNLQTDIPKKYTDVLGTSVKGRLNTLVHNVIINSVDRPVIQMSEEVHEAMQGLRIFMFENVYRNPV | 0.187 |
| HMSVLSEQIKEQLMEDIFHKKYKAGDRIVESALARELGVSQASVREALRSLIAMGFLENEPFKGITVR | -0.000514 |
| HMSVNAPMPGKIVNVLVSEGQKVNSGDVLLILEAMKMQNEIAATQAGTVKAINVAAGQSVKVGDALVN | -0.0534 |
| HMSVPQENKDLLGRSIEIFYAGKTVEAKVTDTGALAPLGRALDLSPATWRAFGASSISDWGVRGVFYRFVA | 0.212 |
| HMSVSTGTITGSVVNLREEPNTSSKVLDKLPKDTVVYVLSASGEWYNVSYGDKTGWVYGEYLA | -0.737 |
| HMSVTSEIGAKIKYFRKSKHFSLQEMADLLYKSKSTLSKYENGQISIDIETLYAIAKVLGVHVEQLLYSEP | -5.12 |
| HMSVTSIEGRVVYDENANKIGIAKQVGIDSTQSMVLVLTKNDGTEGSISWNNIKKIGEIILLGN | -0.908 |
| HMSWAGRRSLAALEARYRDETGISNLKIKHNGVLGYHIEVPSKSADKLMAPDSGFTHRQTLAGAVR | 0.228 |
| HMSYDAINGYEPSDLRGSLTLEQTASMLNLPLTDVYARLGLPANYPSGATLKDGAADMGMGLSDFKHQLF | -0.121 |
| HMSYLDTLPGRRVAAQGAITGDAGTLAVDGDTWSARVEPGAPDVAPGDEVTVLRIDGATLVVRPLP | 0.0276 |
| HMSYPFSEDALKEKIREYLKHNRSINRKVLEAEFHIRKQTALNWLKKLEKSGFLIKEGSRNAPVYFLAE | -1.83 |
| HMSYQADEIKEKLIDILQNQKTGLSGLEISERIGINRITMTKYLQVFAAEGFIKQKNIGNVIIWFIEDGTE | -1.05 |
| HMSYTYPVARLNHIKGKWYVLVSVPAHLRHLFPNQRDLRRSTGTDDESLAKRKQHALAQEIYDLFD | -0.653 |
| HMTAFEPYLVKVMASVLNIRKGPGTSYAITGQIKDKGTYTIVAESGSWGKLKSGAGWISLSYTSKAGKA | -1.82 |
| HMTAFSEQLIKLRKQKGLSQEQLGAAVGVTRQTVSKWELGDTTPELGKLVQLSDYFQLSIDELVGH | -0.703 |

| Sequence | soluble fraction (log2) |
| --- | --- |
| HMTAGTTALNKLQQGMSTQQVQAALGTPSDRTVKESGVELWKYYYPYENMLLYLKFRDGHLVSFGTN | -0.594 |
| HMTAKQDLDSIYRHLVATRKSIAENPKMVSSIDDPQALIKMLDYAIQYFYTDKRDEALAVLEKNEEQLNFR | -0.347 |
| HMTALTTEDLERRFYAKTYEGESAQKRLARLEISVFGELRQGRPESDRLHDLNNAVLEKERAALNAGAVG | 0.063 |
| HMTAMQYVTIKDIADALGISKSSVSRALAGDVHNVSAQTIERVRAKALEMGYLRNNAAVNLR | -0.413 |
| HMTANDKRNALYRKIEVGRRQLPAMDEVAFRQLLAAEFGVESRKDMSVGQLSRLVNILAEKGAVF | -0.741 |
| HMTANTLDLTYSQFLENVKNGSVNDVTIRGNNVSGNFSDGRKFKTYAVNDPTLVEKLTKMGVNISAAPL | 0.405 |
| HMTAPELSVGDYLEYRGKEYKVESLDMDGFITLTDTALEDAPRLISRVTFLTDEFIRSGEYMVIT | -0.811 |
| HMTAQGDSSDAVQRAITEILRHEDPSHPFSDQQLVIKLRTMDISVSRRTVTKYRKLLHIPSSTHRK | -3.12 |
| HMTARYQQVEDYIVRRIQDGSWPPGHRLPSEHELVQQFGMSRMTVNRALRDLMQKGRIVRVAGVGSFVAQD | -1.98 |
| HMTATSKKAAWDEVNKIFPTDYERSAAESERAGYAIFRSTAEGVNAWISDLGDRLEINLPDGKTVNIWIEE | -0.0996 |
| HMTATVPDSEAGIRLDVYAAALLGVSRAGAQKYIESGAVRVNGLPAPKNRRLESGDVIEAVLPDPE | 0.194 |
| HMTAVAAEQQAQDAYRQTAANNLNEIQAKYKLPDSESDDFFTFAYERGFTQEDFIDIGLVDKIMGDYV | 0.19 |
| HMTAVNEHELMNQFKLSLGYANGDDPQTKLSTDEKNDFMRFKEWATAMTKDSKMGKDPDYLKKLAVQWTLK | 0.278 |
| HMTAYEGLPVTLIIDGRVFQQNLQKMNLSVEWLRLELKKFGVTNLKEVLFASLDTEGKLFYQLKT | -0.792 |
| HMTDEYYSYIGKTGTTITVLRPAGIAEVEGERLNVVSEGEFIRKGAAILVKEVEGARILVEEVN | -0.58 |
| HMTDFESYTVRVTATNLNIRKGAGTNFHSAGYIKPGVYTIVEEADGKGATRWGKLKSGMGWISLDYAKK | -1.04 |
| HMTDGYAMRLERLNSLEEYVLNKGTVSLEDLAERFGVSINTIRRDLNELISRGQIKKVYGGVSSLHD | -0.252 |
| HMTDIDATSIERAVAKRRHFFLSNIQDLTMKMARRLIEKDLGLAPKHLDAAPFKTRITELVDAVIALGD | -0.393 |
| HMTDIKYLIADGNDIKHWDTASSSYVKVSELPLTSDKFKIYGDDIYHKERTGIIAASPILKIWSPSAE | 0.384 |
| HMTDKLIAYSVDGILNVITSEAQSVKVYAIDGRLVRILQLGEGRNEVSGLAKGIYIVDNRKVAV | -2.71 |
| HMTDLNQIGERIKGLRDALGYSPEKMASILEQKVDDYLAYEEGTKDISLSVLQRIEKEFDIDLSTLLFGT | -0.333 |
| HMTDRKRDAIVQAAIGEFREHGFNGTSMDRVAAAADVSKRTVYNHFPSKEELFEAILLLMWE | -1.93 |
| HMTDSISLTLNGDPRPFRAGATVADLVRDIGLDPAKVAVERNLEIVPRSTLENVHLADGDVLEIVHFV | 0.0689 |
| HMTDTIALRSVIAESGLKYKALAEIMGLSPYTLQMKIDNESEFKASEIDALANALGMDMQQRDSIFF | -0.536 |
| HMTDVIADMLTRIRNAASSKHQTVDIPSSNLKKEIAKILLEEGYIRDFIEIDDKKQGIIRITL | -0.692 |
| HMTDYREILRLLSLGLSRTQIADSLNVSRTTVIHTLQRAVAQELDWQTAEGMSDRELVAKLFPV | -3.95 |

| Sequence | soluble fraction (log2) |
| --- | --- |
| HMTEAVYMPALQNKTLEEAQRIVEQYDLELEYTYEANAQVEEGRILSQTPQMGVLVERGEKVQAVVSLG | 1.01 |
| HMTEDELLAQFEEILDGYVGKPGGLIPALQTAQKLFGYLPKRVLQLISMKLDIPYSEVTGVVSFYSFFTTV | 0.28 |
| HMTEEEEFEKGFEILVNLSHFNRFSVYKEDEYVIVRIADYDFNEYFKVKKSDVGRIAEFLNENIT | -2.61 |
| HMTEELLNQRKETMLALLNDPTYVPMKLKELAMLLNLSRDQRDELREVMESLEQDGKVILTKRGKYKIP | -0.261 |
| HMTEELQDMESRIIEAAKRVFVRKGYEATKMSDIALEVGLGRTALHYYFRTKEMLFDAIFGRLMGV | -0.702 |
| HMTEEPISDGIKKLVEEWENIEGNLIMIFHGIQKHYGYVPRNVAKYVSEAIDVPLTRIYEILTFYNYFTM | 0.261 |
| HMTEEYAVLWRVARQTLKPEAFDVLWMKYREQLSIAEIAGIMNRSETSVKVMLHRARKNLGTALESS | -1.75 |
| HMTEKIEWYKEVLELEPNSKVFFPLARMLAEEQRFDEAVAVLEHGLERHGEFLEARLFFIELLHET | -3.16 |
| HMTEKQYIYSIGDRVNIGTDEFEIVNINEKEVSIADVTFPMLVKQISYEEFDRKVKENPFNDHLII | -0.112 |
| HMTEKSTRSVPQEHEGKRLDVAAALLFPVYSRSELARRIDAGYLLLNGKGSTPKTKVHELDLIELLEV | -0.601 |
| HMTELKKTAVDTWVKDLGTEQALAKLDTLAVVKLRRLAREYKAFGIAGRAISKADKGMLLAEFRAYYEN | -2.08 |
| HMTETSKLTDAKQLLESILSSGEVSYKDIISAAEEYEIGKRTLMSAKALLSIESIKKTDGWYWTLPH | -0.368 |
| HMTEVPSLSSLKIGDLIFYRNNKGAIAHSAIITSFYNGRPFISQHTFNALNITYVKDWASKMHFIKIW | 0.0528 |
| HMTEWDDATVKDAVEYFMSVNGRVPTVTDFKKENGLPSHPVIKQRYKINLHEWLNKNFPTYY | -1.3 |
| HMTFEPVYDENSRILILGTFPSVKSREQQFYYGHPQNRFWKLLAALTGWKVPKTISEKKELLLQNGIA | -0.208 |
| HMTFFDDLLYQAKAAVDNDPSIKPSLHNRAIIEILYQQGVFNMKNAVEHVAELLEISKNTVYLHLRSVKG | -1.06 |
| HMTFGEMLQYTNRLKEILESNAPQSIKDRRLANLMTDLEQAYGIPILRDQEFEKENPFLMQLYRTIS | -2.4 |
| HMTFKDIMENYTISRIENTINSAVVFLDEINAYITIDKTQLPSNLRYDTDSKIMASQIPDDAKIKYFMIYW | -2.12 |
| HMTFPIDINRADTEQLTALPGIGEVLAKRIIAYREENGSFLSTDELKNVEGIGEKRLEAIVDLITIG | 0.145 |
| HMTFSDKIRELRKQKGVSQAVVAEYLGITKQAYSLYETGKREPDFDSLLKLAEYFGTDTDSLLY | -1.52 |
| HMTGEEVLIMLGEKMKLIRNYNGYSQRQIAEILKIERSTYASYETGRNRPDIFAVQRFAKIFNVSVDYIL | -0.244 |
| HMTGELEVTAAGLSPEKLLNLAAKNHITLSNVKRLSYTQLSFRIGPADYNRLKKLLPEGRYKLNVGSS | -2.28 |
| HMTGESIPFSKFLSEVDSGRVINVEIQGNNISGLLSDGNKFKTYSPNYPNLVEILSEKEVSIVATPLE | 0.0122 |
| HMTGGLTQEQISQLRMLTPQQIEQLRQLQPQQVEMLRQLRPEQVMLLTQLEPQQIMAFMRLEPSVIMQL | -0.261 |
| HMTGGMVTYIIEKGEGFFSLERKFGLSENELIKLNPSLKSGLKSEMQINIPKENYDRYVASS | -0.45 |
